Biological target: T1, streptavidin (UniProt P22629 37-163)
T1 construct: also called peroxidase-labeled streptavidin; streptavidin-Sepharose
Experiment: SPR (BiacoreX, NTA chip), fusion protein immobilised, streptavidin injected
Method: The measurements of the dissociation constant were performed with a BiacoreX system and the sensor chip NTA of the company Biacore. The proteins generated during the expression described in Example 1 were investigated, i.e. FAB proteins, which had at the N terminus a peptide consisting of 15 amino acids as fusion partners and at the C terminus 6 histidines, which were needed for the immobilization on the sensor chip. The binding affinity of the proteins generated during the expression to streptavidin described in Example 1 was measured in the Biacore device according to manufacturer's instructions. The protein to be investigated is on the sensor chip, and a streptavidin solution having a defined concentration is sprayed in. The interaction (binding) between the two molecules is measured by the device and quantified as so-called resonance units (RU). For the measurement, the buffers specified by the manufacturer were used.

T1 sequence (P22629 37-163 limits assumed): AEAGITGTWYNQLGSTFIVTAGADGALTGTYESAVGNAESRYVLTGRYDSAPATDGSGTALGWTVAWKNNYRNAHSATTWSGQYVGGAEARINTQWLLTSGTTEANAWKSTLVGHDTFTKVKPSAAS

Row | RU at 500 nM streptavidin [RU] | RU at 2 µM streptavidin [RU] | Binder
1 | 62 | 233 | FAB protein (FABP from bovine hearts) with N-terminal 15-amino-acid peptide motif 1 and C-terminal His-tag of 6 histidines (other) DLYDIDRNWVGHPQGFVGTWKLVDSKNFDDYMKSLGVGFATRQVGNMTKPTTIIEVNGDTVIIKTQSTFKNTEISFKLGVEFDETTADDRKVKSIVTLDGGKLVHVQKWNGQETSLVREMVDGKLILTLTHGTAVCTRTYEKQAHHHHHH
2 | 786 | 946 | FAB protein (FABP from bovine hearts) with N-terminal 15-amino-acid peptide motif 3 and C-terminal His-tag of 6 histidines (other) DVEAWLDERVPLVETFVGTWKLVDSKNFDDYMKSLGVGFATRQVGNMTKPTTIIEVNGDTVIIKTQSTFKNTEISFKLGVEFDETTADDRKVKSIVTLDGGKLVHVQKWNGQETSLVREMVDGKLILTLTHGTAVCTRTYEKQAHHHHHH
3 | 478 | 644 | FAB protein (FABP from bovine hearts) with N-terminal 15-amino-acid peptide motif 4 and C-terminal His-tag of 6 histidines (other) DVEAWIADPAVHFTTFVGTWKLVDSKNFDDYMKSLGVGFATRQVGNMTKPTTIIEVNGDTVIIKTQSTFKNTEISFKLGVEFDETTADDRKVKSIVTLDGGKLVHVQKWNGQETSLVREMVDGKLILTLTHGTAVCTRTYEKQAHHHHHH

Reference: patent US8076452 (dated 2011)
